The text below walks through data of article PMC8212047 (Frontiers in Immunology, 2021).

The labels stand for the following.
B1: CB6 (antibody, V domains shown)
VH: EVQLVESGGGLVQPGGSLRLSCAASGFTVSSNYMSWVRQAPGKGLEWVSVIYSGGSTFYADSVKGRFTISRDNSMNTLFLQMNSLRAEDTAVYYCARVLPMYGDYLDYWGQGTLVTVSS
VL: not shown
notes: source: produced and purified as previously described (29)
B2: RGN10987 (antibody, V domains shown)
VH: QVQLVESGGGVVQPGRSLRLSCAASGFTFSNYAMYWVRQAPGKGLEWVAVISYDGSNKYYADSVKGRFTISRDNSKNTLYLQMNSLRTEDTAVYYCASGSDYGDYLLVYWGQGTLVTVSS
VL: QSALTQPASVSGSPGQSITISCTGTSSDVGGYNYVSWYQQHPGKAPKLMIYDVSKRPSGVSNRFSGSKSGNTASLTISGLQSEDEADYYCNSLTSISTWVFGGGTKLTVL
B3: RGN10933 (antibody, V domains shown)
VH: QVQLVESGGGLVKPGGSLRLSCAASGFTFSDYYMSWIRQAPGKGLEWVSYITYSGSTIYYADSVKGRFTISRDNAKSSLYLQMNSLRAEDTAVYYCARDRGTTMVPFDYWGQGTLVTVSS
VL: DIQMTQSPSSLSASVGDRVTITCQASQDITNYLNWYQQKPGKAPKLLIYAASNLETGVPSRFSGSGSGTDFTFTISGLQPEDIATYYCQQYDNLPLTFGGGTKVEIK

This test has as its target SARS-CoV-2 RBD (Wuhan-1) RBD-FC fusion protein (SARS-CoV-2, UniProt P0DTC2). Nature of the test: SPR. As to conditions: both partners purified.
For B1, the binding result is on record as “binds”. In the case of B2, the binding result was “binds”.

In the case of B3, the binding result is “binds”.
